Laboratory results taken from PMC4211926 (Journal of molecular biology, 2013).
Where two headings read alike, the source gives them in different places.

Key:
[1] = biological target: T1, SIRT1 catalytic domain (SIRT1^CAT), residues 234-510 (human, UniProt Q96EB6 234-510); test: SEC
T1 sequence (looked up): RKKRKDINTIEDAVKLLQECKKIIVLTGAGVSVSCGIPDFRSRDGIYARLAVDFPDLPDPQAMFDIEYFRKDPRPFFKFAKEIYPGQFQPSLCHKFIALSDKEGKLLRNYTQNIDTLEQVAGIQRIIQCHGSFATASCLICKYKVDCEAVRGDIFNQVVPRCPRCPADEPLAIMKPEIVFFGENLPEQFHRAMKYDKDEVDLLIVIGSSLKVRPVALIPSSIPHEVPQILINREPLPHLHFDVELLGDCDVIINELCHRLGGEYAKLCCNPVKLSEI

[2] = biological target: T2, His-tagged SIRT1 catalytic domain (His-tagged SIRT1^CAT) (human, UniProt Q96EB6 234-510); test: pull-down
T2 sequence (looked up): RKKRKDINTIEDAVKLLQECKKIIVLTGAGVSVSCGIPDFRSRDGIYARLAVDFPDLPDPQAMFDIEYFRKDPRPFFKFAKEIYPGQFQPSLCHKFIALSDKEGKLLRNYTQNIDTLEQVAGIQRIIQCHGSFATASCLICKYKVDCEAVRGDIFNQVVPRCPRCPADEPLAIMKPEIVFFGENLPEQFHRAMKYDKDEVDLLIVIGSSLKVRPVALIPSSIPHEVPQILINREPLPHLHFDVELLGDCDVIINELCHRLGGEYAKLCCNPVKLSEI

[3] = biological target: T1, SIRT1 catalytic domain (SIRT1^CAT), …; test: SEC; remark: listed apart in the source
SIRT1^CAT S265A = biological target: T3, SIRT1^CAT S265A (human, UniProt Q96EB6 234-510, S265A); test: SEC
T3 sequence (looked up): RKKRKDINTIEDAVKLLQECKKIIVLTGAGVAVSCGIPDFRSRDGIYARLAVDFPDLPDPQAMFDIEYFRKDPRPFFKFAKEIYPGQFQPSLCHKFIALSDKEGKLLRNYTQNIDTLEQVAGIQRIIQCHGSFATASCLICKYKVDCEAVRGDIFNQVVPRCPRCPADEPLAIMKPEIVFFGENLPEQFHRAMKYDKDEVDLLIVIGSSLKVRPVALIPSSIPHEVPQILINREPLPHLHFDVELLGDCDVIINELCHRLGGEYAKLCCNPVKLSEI

SIRT1^CAT R276A = biological target: T4, SIRT1^CAT R276A (human, UniProt Q96EB6 234-510, R276A); test: SEC
T4 sequence (looked up): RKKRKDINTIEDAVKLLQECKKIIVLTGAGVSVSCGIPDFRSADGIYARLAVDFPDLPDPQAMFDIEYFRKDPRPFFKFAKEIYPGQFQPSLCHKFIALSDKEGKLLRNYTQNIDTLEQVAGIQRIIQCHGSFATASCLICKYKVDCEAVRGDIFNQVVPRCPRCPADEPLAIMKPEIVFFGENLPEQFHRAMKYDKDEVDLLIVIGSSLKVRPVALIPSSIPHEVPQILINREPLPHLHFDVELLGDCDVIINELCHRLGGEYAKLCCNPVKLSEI

SIRT1^CAT Q345A = biological target: T5, SIRT1^CAT Q345A (human, UniProt Q96EB6 234-510, Q345A); test: SEC
T5 sequence (looked up): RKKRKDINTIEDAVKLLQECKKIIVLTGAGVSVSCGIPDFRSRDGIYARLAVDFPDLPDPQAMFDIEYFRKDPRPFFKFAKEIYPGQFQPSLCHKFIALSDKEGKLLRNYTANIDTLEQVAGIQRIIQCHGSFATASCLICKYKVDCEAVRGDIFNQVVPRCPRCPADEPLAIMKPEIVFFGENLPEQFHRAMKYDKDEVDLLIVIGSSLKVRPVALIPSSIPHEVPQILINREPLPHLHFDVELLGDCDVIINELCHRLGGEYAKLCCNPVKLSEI

SIRT1^CAT I347A = biological target: T6, SIRT1^CAT I347A (human, UniProt Q96EB6 234-510, I347A); test: SEC
T6 sequence (looked up): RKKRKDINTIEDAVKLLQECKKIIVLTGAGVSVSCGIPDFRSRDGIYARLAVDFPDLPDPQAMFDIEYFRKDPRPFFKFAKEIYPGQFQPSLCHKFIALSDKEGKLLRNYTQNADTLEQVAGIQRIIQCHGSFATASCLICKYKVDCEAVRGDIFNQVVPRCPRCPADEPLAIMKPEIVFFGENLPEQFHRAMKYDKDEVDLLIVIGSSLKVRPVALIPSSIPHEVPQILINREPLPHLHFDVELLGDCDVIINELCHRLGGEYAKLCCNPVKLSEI

SIRT1^CAT H363A = biological target: T7, SIRT1^CAT H363A (human, UniProt Q96EB6 234-510, H363A); test: SEC
T7 sequence (looked up): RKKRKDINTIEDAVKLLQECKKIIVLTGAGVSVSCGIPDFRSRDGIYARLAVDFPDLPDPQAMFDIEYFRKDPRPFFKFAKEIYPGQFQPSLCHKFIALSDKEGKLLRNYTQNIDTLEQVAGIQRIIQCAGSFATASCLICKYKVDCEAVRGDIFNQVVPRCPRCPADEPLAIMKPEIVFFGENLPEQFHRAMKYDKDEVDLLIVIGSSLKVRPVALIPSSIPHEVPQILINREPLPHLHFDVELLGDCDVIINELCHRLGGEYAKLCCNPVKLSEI

SIRT1^CAT F414A = biological target: T8, SIRT1^CAT F414A (human, UniProt Q96EB6 234-510, F414A); test: SEC
T8 sequence (looked up): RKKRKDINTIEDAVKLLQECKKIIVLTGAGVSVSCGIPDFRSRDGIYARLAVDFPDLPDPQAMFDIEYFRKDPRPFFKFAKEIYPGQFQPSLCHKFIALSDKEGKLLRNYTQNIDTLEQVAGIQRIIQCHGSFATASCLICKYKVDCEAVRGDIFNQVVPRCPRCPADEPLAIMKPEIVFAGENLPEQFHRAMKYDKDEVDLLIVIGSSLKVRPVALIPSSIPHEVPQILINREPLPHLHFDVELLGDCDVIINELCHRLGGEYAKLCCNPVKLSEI

SIRT1^CAT R466A = biological target: T9, SIRT1^CAT R466A (human, UniProt Q96EB6 234-510, R466A); test: SEC
T9 sequence (looked up): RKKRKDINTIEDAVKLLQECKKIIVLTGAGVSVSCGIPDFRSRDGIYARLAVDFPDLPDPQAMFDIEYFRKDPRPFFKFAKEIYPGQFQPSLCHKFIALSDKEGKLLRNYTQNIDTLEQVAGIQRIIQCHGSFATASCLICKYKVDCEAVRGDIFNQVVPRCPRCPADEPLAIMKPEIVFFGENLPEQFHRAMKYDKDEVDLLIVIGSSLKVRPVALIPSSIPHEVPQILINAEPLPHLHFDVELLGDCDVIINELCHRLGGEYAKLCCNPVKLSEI

SIRT1^CAT D481A = biological target: T10, SIRT1^CAT D481A (human, UniProt Q96EB6 234-510, D481A); test: SEC
T10 sequence (looked up): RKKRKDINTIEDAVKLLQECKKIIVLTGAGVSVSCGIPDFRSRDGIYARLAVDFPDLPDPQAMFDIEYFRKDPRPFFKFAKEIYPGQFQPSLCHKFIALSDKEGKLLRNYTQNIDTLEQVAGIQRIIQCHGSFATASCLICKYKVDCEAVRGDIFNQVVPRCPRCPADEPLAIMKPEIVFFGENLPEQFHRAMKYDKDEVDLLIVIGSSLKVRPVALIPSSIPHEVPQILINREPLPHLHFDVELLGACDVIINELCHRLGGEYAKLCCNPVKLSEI

[4] = biological target: T1, SIRT1 catalytic domain (SIRT1^CAT), …; test: SEC; remark: listed apart in the source

Measured: binding result

B1: SUMO-tagged C-terminal regulatory segment of SIRT1 (SUMO-CTR), residues 641-665 (domain or fragment, human, UniProt Q96EB6 641-665, looked up)
chain: QYLFLPPNRYIFHGAEVYSDSEDDV
binds: [1] | [2]

B2: CTR E656A (domain or fragment, human, UniProt Q96EB6 641-665, looked up)
chain: QYLFLPPNRYIFHGAAVYSDSEDDV
binds: [3]

B3: C-terminal regulatory segment of SIRT1 (CTR), residues 641-665 (domain or fragment, human, UniProt Q96EB6 641-665, looked up)
chain: QYLFLPPNRYIFHGAEVYSDSEDDV
binds: SIRT1^CAT S265A | SIRT1^CAT R276A | SIRT1^CAT Q345A | SIRT1^CAT I347A | SIRT1^CAT H363A | SIRT1^CAT F414A | SIRT1^CAT R466A | SIRT1^CAT D481A | [4]

B4: GST-tagged C-terminal regulatory segment of SIRT1 (GST-CTR) (domain or fragment, human, UniProt Q96EB6 641-665, looked up)
chain: QYLFLPPNRYIFHGAEVYSDSEDDV
binds: [2]
